Results published in paper PMC7045643, “Allosteric inhibition of CRISPR-Cas9 by bacteriophage-derived peptides” (Genome Biology, 2020).

Test system: catalytically inactive Cas9 (dCas9)
Assay: ChIP-qPCR of dCas9 binding at AAVS1 on-target and off-target sites in Hela cells
Assay type: cell-based
Conditions: AAVS1 on target and pre-determined off-target sites, two biological replicates, Fig. S9
Procedure: For ChIP experiments, low-passage Hela cells were seeded on to 15-cm plates at a density of 4 × 10^6 cells per plate. The next day, a total of 40.5 μg M13 G8PPD or M13 G8PFL plasmid, 20.25 μg 3×Flag-tagged dCas9 plasmid, and 20.25 μg sgRNA plasmid were transfected into cells using Lipofectamine 3000 (Invitrogen). Two biological replicates were performed for each condition. ChIP was performed with Simple ChIP Enzymatic Chromatin IP Kit (Cell Signaling Technology) following the manufacturer’s instructions. After 48 h, the cells were washed once with PBS, and 1.25 mL of 16% formaldehyde (Life Technologies) was added to 20 mL of serum-free DMEM for crosslinking to a final formaldehyde concentration of 1%. After 10 min of crosslinking at room temperature, the cells were harvested for the ChIP assay. The chromatin was sonicated using Branson digital sonifier for 10 cycles of “on/off” pulse with a 30-s interval. Fragmented chromatin was diluted and incubated with 2 μg anti-Flag Chip grade antibody (Sigma, USA) overnight at 4 °C. qPCR with immunoprecipitation-purified DNA as the template was used to analyze the effects of G8Ps on dCas9 binding at the on-target and off-target sites.

B1: M13 G8PFL: full-length M13 phage major coat protein G8P, expressed from plasmid in human cells (protein, UniProt P03619 1-74, looked up)
chain: MKKSVVAKIIAGSTLVIGSSAFAADDATSQAKAAFDSLTAQATEMSGYAWALVVLVVGATVGIKLFKKFVSRAS
modifications: full-length
notes: full-length M13 phage major coat protein G8P, expressed from plasmid in human cells
- binding specificity of dCas9 at on-target site: did not significantly improve
